Test results: doi:10.1101/2020.06.12.149534 (bioRxiv, 2020)

Legend:
[1] = biological target: P113 N-terminal fragment D106K E107K, biotinylated bait (Plasmodium falciparum (3D7 strain)) (UniProt Q8ILP3); test: SPR
[2] = biological target: T1, P113 N-terminal fragment (P. falciparum 3D7), purified soluble analyte (Plasmodium falciparum 3D7, stabilised); test: SPR
T1 chain: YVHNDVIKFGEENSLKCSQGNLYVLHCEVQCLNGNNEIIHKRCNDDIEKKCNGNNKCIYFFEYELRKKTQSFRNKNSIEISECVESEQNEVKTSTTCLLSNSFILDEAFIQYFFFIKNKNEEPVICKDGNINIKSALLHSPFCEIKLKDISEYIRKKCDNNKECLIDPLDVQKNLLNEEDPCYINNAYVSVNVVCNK

For “purified monomeric RH5 protein (from UniProt Q8IFM5 25-526) (natural protein)”, the fold reduction in dissociation half-life against wild-type P113 [1] was 2 fold.

B1: anti-P113 monoclonal antibody P3.2 (antibody, V domains shown)
VH: QVQLQQPGAELVKPGASVRLSCKASGYTFTSYFMYWVRQRPGQGLQSIGGINPNNGGSNFNERFKTKATLTVDKSSSIAYLQLNSLTSEDSAVYYCTRRGLGYDYGGFAYWGQGTLVTVSA
VL: DIQMTQTTSSLSASLGDRVTISCRASQDISNYLNWYQQKPDGTVKLLIYYTSRLHSGVSSRFSGSGSGTDYSLTIKNLEQEDIATYFCQQVNALPPTFGGGTKLEIK
In the case of B1, the Kd [2] is reported as 320 nM.
